{"source": "patent US20230257435A1", "about": "“Wound Healing Composition and Uses Thereof” (AGENCY FOR SCIENCE, TECHNOLOGY AND RESEARCH, priority 2020, published 2023)", "molecules": {"B1": {"name": "sAgrin: C-terminus recombinant Agrin fragment containing 8 amino acid 'Z8' insert and LG3 domain (SEQ ID NO: 7), His-tagged, expressed in E. coli (protein)", "chain": "DTLAFDGRTFVEYLNAVTESELANEIPVEKALQSNHFELSLRTEATQGLVLWSGKATERADYVALAIVDGHLQLSYNLGSQPVVLRSTVPVNTNRWLRVVAHREQREGSLQVGNEAPVTGSSPLGATQLDTDGALWLGGLPELPVGPALPKAYGTGFVGCLRDVVVGRHPLHLLEDAVTKPELRPCPTP", "modifications": "His tag"}}, "key": {"pMLC": {"tested_on": "pMLC", "assay": "Force transmission via ligand conjugated magnetic beads", "assay_type": "cell-based, human"}, "mouse skin wounds": {"tested_on": "mouse skin wounds", "assay": "Cytokine and chemokine expression in mouse skin wounds", "assay_type": "in vivo", "description": "The photographs of a representative wound for each condition is shown above. The respective p values for the selected group of significant genes are represent in tabular form (n=3 mice per group, Multiple t tests). (b) Western blot analysis in the mouse skin treated as in (a) showing the protein expression of selected proteins. GAPDH served as a loading control (n=2 independent mice wounds were analyzed for each group).\nIndicated cells post-manipulation were washed twice with cold Phosphate buffered saline (PBS) and lysed with cold 1% NP-40 lysis buffer supplemented with 1× protease inhibitor cocktail (Roche Applied Biosciences) for 15 mins at 4° C. […] The density of the various bands was quantified using the Image-J software.\nTotal RNA was extracted from indicated cells using Qiagen RNeasy mini kit as per the manufacturer's recommended protocol. […] For RNA-sequencing, the RNA quality was analyzed on a Bioanalyzer instrument (Agilent) using the Agilent RNA 6000 Pico Kit. […] Purified libraries were quantified by qPCR (KAPA Library Quantification Kit for Illumina, Roche). […] The condition of sequencing was represented by a single read high output run at 75 bp read length. Raw reads from fastq files were aligned to the hg38 genome using STAR 2.6.1d. […] The relative number of reads mapping to each gene was quantified with htseqcount on features from the gtf file gencode.v29.annotation.gtf. […]"}, "[1]": {"tested_on": "keratinocytes and dermal fibroblasts", "assay": "In vitro scratch wound-healing assay", "assay_type": "cell-based, human and mouse", "description": "A confluent monolayer of control and Agrin depleted cells in a 6-well plate was subjected to a unidirectional scratch using a 20 μl pipette tip. This was followed by washing with 1×PBS at room temperature and incubation in complete culture media at 37° C. and 5% CO2 with or without sAgrin used as indicated. Phase contrast images of the wound area were taken periodically at the indicated time-points. For some wound-healing migration assays, keratinocytes were cultured on either soft or stiff substrates within a stencil barrier (Nalge Nunc., Inc) for 18 h. Upon removal of the barrier, the cells were allowed to migrate and imaged using an Axiovert 200 inverted microscope at indicated time-points."}, "[2]": {"tested_on": "primary mouse keratinocytes over dermal fibroblasts", "assay": "3D-stiffness dependent keratinocyte fibroblast co-culture migration assay", "assay_type": "cell-based", "conditions": "10 μg/ml sAgrin", "from_the_text": "A 3D in-vitro wound healing model was created using collagen constructs of defined stiffness modifying a previously published protocol. Collagen constructs were made with Col-T-gel (0.8 KPa-soft) or (30 KPa-stiff) as per manufacturer's recommended protocol containing 300,000 primary mouse dermal fibroblasts (DFs). For some experiments, siControl and siAgrin treated DFs were incorporated within soft or stiff collagen constructs. The constructs bearing fibroblasts were allowed to solidify for 45 min inside incubator. A second layer of collagen matching the stiffness of the underneath layer was added containing 350,000 of primary mouse keratinocytes (KRTs) and the construct was allowed to solidify for 3-4 h. After removing excess media, the constructs were washed gently with 1×PBS twice. An upside down 2μ pipette tip was inserted and gently rotated at the center of the constructs to create a circular wound. The collagen and cells was quickly removed from the wound area and replaced with 40 μl of soft or stiff Col-T-gel matching the consistency and set-up of the constructs. The resultant wounded constructs were placed inside the incubator and imaged after 30 min for day 0 time-points. The migratory keratinocytes were imaged till day 5 post-wounding."}}, "note": "“Also recorded” adds a separate entry of the source.", "data": [{"molecule": "B1", "values": [{"measurement": "pMLC recruitment in control cells upon force (bead pull-down Western)", "setting": "pMLC; siControl cells", "result": "greater pMLC recruitment in control cells compared to FN, but similar to that induced by Syndecan-4"}, {"measurement": "pMLC with temporal increase of force application", "setting": "pMLC; up to 60 min", "result": "enhanced pMLC mechanoperception"}, {"measurement": "protein expression of TGF-β1, VEGF-A and MCP-1", "setting": "mouse skin wounds; vs BSA and Collagen", "result": "augmented protein expression(s) of TGF-β1, VEGF-A and MCP-1"}, {"measurement": "mRNA of TGF-β1, VEGF-A, MCP-1, MIP-1β and MIP-2", "setting": "mouse skin wounds; within 48 h post-injury, vs BSA or Collagen", "result": "significantly induced"}, {"measurement": "scratch wound-responsive migration velocities (rescue of Agrin knockdown)", "setting": "[1]; Agrin knockdown fibroblasts and keratinocytes, 10 μg/ml sAgrin 18 h", "result": "in part, rescued"}, {"measurement": "migration of MMP 1 and 10 knockdown keratinocytes", "setting": "[1]; HaCaT, 10 μg/ml sAgrin 18 h", "result": "not restored by sAgrin treatment"}, {"measurement": "migratory rates with increasing concentrations of sAgrin", "setting": "[1]; HaCaT/mouse keratinocytes", "result": "accelerated migratory rates"}, {"measurement": "migration of MMP12 depleted keratinocytes", "setting": "[1]; human and mouse keratinocytes, 10 μg/ml sAgrin 18 h", "result": "failed to stimulate migration"}, {"measurement": "K17 expressing leader keratinocyte migration in vitro", "setting": "[1]; sAgrin 10 μg/ml, 4 h", "result": "enhanced the K17 expressing leader keratinocyte migration"}, {"measurement": "keratinocyte migration in soft matrix", "setting": "[2]; 0.8 KPa, day 5", "result": "strongly enhanced keratinocyte migration; also recorded: stimulated mouse keratinocyte migration over dermal fibroblasts"}, {"measurement": "keratinocyte migration in stiff matrix, Agrin depleted KRTs and DFs", "setting": "[2]; 30 KPa", "result": "strongly restored keratinocyte migration"}, {"measurement": "keratinocyte migration, MMP12 depleted KRTs and DFs", "setting": "[2]; soft matrix 0.8 KPa", "result": "not even rescued by sAgrin supplemented compliant matrices"}]}]}
